Km, kcat and kcat/Km data for 1 substance are collected here from PMC8671467, “A novel Bacillus ligniniphilus catechol 2,3-dioxygenase shows unique substrate preference and metal requirement” (Scientific Reports, 2021).

For one data set, the system named is CCc1cccc(O)c1O. Nature of the data set: purified protein. As to conditions: 0.1 M Tris-HCl pH 7.4, 0.1 mM MnCl2, 32.5 °C, 20 µg/mL enzyme, 0.05-1.0 mM substrate.
A further data set relates to Cc1cccc(O)c1O. Description: purified protein. Particulars: 0.1 M Tris-HCl pH 7.4, 0.1 mM MnCl2, 32.5 °C, 40 µg/mL enzyme, 0.2-1.2 mM substrate.

As to “BLC23O (Halalkalibacterium ligniniphilum)”, in the data set with CCc1cccc(O)c1O, the Michaelis-Menten constant (Km) (as a rule, the substrate concentration at which the rate is half of its maximum) came out at 193 ± 17 µM; the catalytic constant (kcat) (commonly the number of substrate molecules converted per active site and unit of time at saturation) is 0.47 ± 0.09 s⁻¹; the catalytic efficiency (kcat/Km) – broadly, the turnover number divided by the Michaelis constant – worked out at 2400 M⁻¹ s⁻¹. In addition, in the data set on Cc1cccc(O)c1O, the Km amounted to 418 ± 25 µM, the turnover number (kcat) stood at 0.2 ± 0.03 s⁻¹ and the catalytic efficiency (kcat/Km) came to 480 M⁻¹ s⁻¹.
